Several values for one entry are separate records, joined by “and”; a condition that tells them apart may be missing. Equal values may be shown once.
Assays:
[1] = biological target: Positive control 20 mer peptide (Mimotopes); test: 16 mer peptide ELISA control well, control antibody diluted 32-fold
[2] = biological target: Negative control 20 mer peptide (Mimotopes); test: as above
[3] = biological target: Positive control 20 mer peptide (Mimotopes); test: 16 mer peptide ELISA control well, control antibody diluted 4-fold
[4] = biological target: Negative control 20 mer peptide (Mimotopes); test: as above
[5] = biological target: Positive control 20 mer peptide (Mimotopes); test: 16 mer peptide ELISA control well, control antibody diluted 16-fold
[6] = biological target: Negative control 20 mer peptide (Mimotopes); test: as above

absorbance at 490 nm [1]: 0.739 A490 and 0.976 A490 | absorbance at 490 nm [2]: 0.072 A490 and 0.103 A490 | absorbance at 490 nm [3]: 1.5 A490 and 1.55 A490 | absorbance at 490 nm [4]: 0.077 A490 and 0.072 A490 | absorbance at 490 nm [5]: 1.2 A490 and 1.21 A490 | absorbance at 490 nm [6]: 0.08 A490 and 0.082 A490
Substance: Control Ab (Supplied with Mimotopes custom order) (antibody)

Source: patent publication US20110243928A1
